One substance from paper PMC5021983 can be followed below.

Holding throughout (experiment): FRET titration
The test system of series [1] is Gal4. Particulars: EMSA: 5 nM nucleosome, 130 mM NaCl, 10% glycerol, 10 mM Tris-HCl pH 8, 0.005% Tween 20, 0.5x TE, room temperature 3 min, 5% native PAGE in 0.3x TTE, FRET: 5 nM …. In general terms: In EMSA bound probe runs differently from free probe, usually more slowly.
Series [2] has as its system MeCP2 (human). The note with it: EMSA: 5 nM nucleosome, 130 mM NaCl, 10% glycerol, 10 mM Tris-HCl pH 8, 0.005% Tween 20, 0.5x TE, room temperature 3 min, 5% native PAGE in 0.3x TTE; FRET: 5 nM ….
Series [3] deals with histone H1 (Drosophila). Particulars: EMSA: 5 nM nucleosome, 130 mM NaCl, 10% glycerol, 10 mM Tris-HCl pH 8, 0.005% Tween 20, 0.5x TE, room temperature 3 min, 5% native PAGE in 0.3x TTE; FRET: 5 nM ….

Consider “601 mononucleosome with Gal4 site, 247 bp (FRET construct)”, for which the K half in series [1] (no CAP, 5 nM nucleosome, Hill coefficient -3.76 ± 2.16) was 3.06 nM; in series [1] (nucleosome prebound with 25 nM MeCP2, Hill coefficient -1.47 ± 0.22), 12.2 nM; in series [2] it was 20.7 nM; in series [3], 12.1 nM.
